Data on two molecules can be found in article doi:10.1101/452920.

Residue numbers refer to the chain shown, from its start. Like-named read-outs stand apart in the source and are kept apart here.

Experiment in all cases: fluorescence anisotropy
(In general: Polarisation of emitted light reports the rotation of a fluorescent probe.)

For one series, the target named is T1, MRPP3 (Δ95) (human, UniProt O15091 96-583, del1-95).
T1 sequence: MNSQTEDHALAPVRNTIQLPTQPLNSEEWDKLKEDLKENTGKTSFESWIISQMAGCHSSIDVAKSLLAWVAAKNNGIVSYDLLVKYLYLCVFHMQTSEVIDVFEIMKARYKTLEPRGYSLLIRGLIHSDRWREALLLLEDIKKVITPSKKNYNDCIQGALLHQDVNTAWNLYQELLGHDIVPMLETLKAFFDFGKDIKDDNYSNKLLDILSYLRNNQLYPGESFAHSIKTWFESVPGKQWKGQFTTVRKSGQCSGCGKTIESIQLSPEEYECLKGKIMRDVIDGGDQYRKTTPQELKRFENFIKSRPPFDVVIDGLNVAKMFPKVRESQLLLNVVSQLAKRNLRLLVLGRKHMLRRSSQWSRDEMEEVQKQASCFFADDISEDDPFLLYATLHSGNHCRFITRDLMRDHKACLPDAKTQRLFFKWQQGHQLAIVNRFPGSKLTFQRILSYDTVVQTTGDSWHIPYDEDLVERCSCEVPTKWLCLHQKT

For series [1], the target named is T2, MRPP1 (Δ39);MRPP2;MRPP3 (Δ95) (human;human;human, UniProt Q7L0Y3;Q99714;O15091 40-403;1-261;96-583, del1-39||del1-95).
T2 sequence 1: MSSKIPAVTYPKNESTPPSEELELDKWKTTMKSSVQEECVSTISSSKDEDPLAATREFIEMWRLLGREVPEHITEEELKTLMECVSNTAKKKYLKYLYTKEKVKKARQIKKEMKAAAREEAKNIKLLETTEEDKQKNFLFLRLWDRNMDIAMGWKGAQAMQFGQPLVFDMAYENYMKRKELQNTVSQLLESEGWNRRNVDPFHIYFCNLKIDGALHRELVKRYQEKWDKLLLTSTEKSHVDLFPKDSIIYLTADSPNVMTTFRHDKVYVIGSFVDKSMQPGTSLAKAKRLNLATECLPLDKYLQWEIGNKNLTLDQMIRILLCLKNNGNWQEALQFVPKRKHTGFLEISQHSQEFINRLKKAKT
T2 sequence 2: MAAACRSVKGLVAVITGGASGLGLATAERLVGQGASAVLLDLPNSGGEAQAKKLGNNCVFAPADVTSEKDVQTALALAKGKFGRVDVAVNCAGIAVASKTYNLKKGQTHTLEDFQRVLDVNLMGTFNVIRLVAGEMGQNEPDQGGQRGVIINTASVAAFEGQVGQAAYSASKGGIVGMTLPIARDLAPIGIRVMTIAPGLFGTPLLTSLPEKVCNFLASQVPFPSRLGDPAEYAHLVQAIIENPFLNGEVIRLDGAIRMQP
T2 sequence 3: T1 sequence

The target of series [2] is T3, MRPP1 (Δ39);MRPP2 (human;human, UniProt Q7L0Y3;Q99714 40-403;1-261, del1-39|).
T3 sequence 1: T2 sequence 1
T3 sequence 2: T2 sequence 2

In series [3] the target is T2, MRPP1 (Δ39);MRPP2;MRPP3 (Δ95). The source holds these as a separate data set.
The target in series [4] is T3, MRPP1 (Δ39);MRPP2. The source holds these as a separate data set.

B1: (mt)pre-tRNAVal7:0 (structured_RNA)
RNA: GACGAACCAGAGUGUAGCUUAACACAAAGCACCCAACUUACACUUAGGAGAUUUCAACUUAACUUGACCGCUCUGA
As a reminder, the Kd is the constant that tells how readily two partners part at equilibrium. In the case of B1, binding in the series with MRPP3 (Δ95) was characterised by a dissociation constant (Kd) of 21.7 ± 2.6 µM. The binding result (in series [1]; with MRPP1 (Δ39);MRPP2 [2]) was “binds” each time.

B2: (mt)pre-tRNAVal/C9 (structured_RNA)
RNA: B1 RNA with A16C
Consider B2, for which the binding result (in series [3]; with MRPP1 (Δ39);MRPP2 [4]) was “binds” each time.
